Reference: patent US6770740B1, “Crosslinked DNA condesate compositions and gene delivery methods” (The Regents of the University of Michigan, priority 1999, dated 2004)
One block for each substance: values may come before it.

Experiments:
[1] = QELS particle size and zeta potential of peptide DNA condensates, Example 6; format: physicochemical; settings: charge ratio 4:1, 50 μg/ml DNA in HBM; for Particle Size (nm): 90°, average and SD of three, No particles formed; for Zeta Potential (mV): average and SD of ten
Method: The particle size and zeta potential of peptide DNA condensates were determined by quasielastic light scattering (QELS) using a Brookhave ZetaPlus™. Particle size analysis was performed in triplicate at a DNA concentration of 50 μg/ml in HBM at a charge ratio of 4:1 and a scattering angle of 90°. Data analysis utilized a multimodal volume distribution option included with the instrument. Zeta potential was also determined using 50 μg/ml peptide DNA condensates prepared at a 4:1 charge ratio in HBM. The reported zeta potential was averaged from ten determinations.

plasmid DNA = experiment: Thiazole orange displacement titration of peptide binding to DNA, Example 6; settings: titration across charge ratios 0.25-8
Method: Peptide DNA condensates were prepared by combining 50 μg of DNA in 500 μl of Hepes buffered mannitol (HBM) (5 w/v% mannitol, 5 mM Hepes, pH 7.5) with […] of peptide in 500 μl of HBM while vortexing to form peptide DNA condensates with a calculated primary amine to phosphate charge ratio between 0.25 and 8.0 (NH4^+:PO4). The condensates were allowed to cross-link for 30 min prior to performing physical measurements. The binding of each peptide to DNA was assayed by combining peptide DNA condensates (50 μl) with 950 μl of HBM containing 0.1 μM thiazole orange. The fluorescence of the intercalated dye was measured using an LS50B fluorometer (Perkin Elmer, UK) by exciting at 500 nm while monitoring emission at 530 nm with the slit width set at 15 and 20 nm, respectively. Fluorescence blanks were substracted from all values before data analysis.

[2] = Shear stress stability (salt sonication assay), Example 6; format: physicochemical; settings: 30 sec sonication; highest tested 2.5 M
Method: The relative stability of peptide DNA condensates were examined using a salt sonication assay (Adami and Rice, 1999). Peptide DNA condensates (200 μl of 50 μg/ml) were formed as described above, incubated at RT for 30 min and then combined with 0-200 μl of 5 m […] and normalized to 400 μl with HBM to achieve a final sodium chloride concentration of 0, 0.2, 0.4, 0.8, 1.0, 1.5, 2.0 and 2.5 M. Each sample was sonicated for 30 sec with a 100 W Microson™ XL-2000 ultrasonic probe homogenizer (Kontes, Vineland N.J.) with a vibrational amplitude of 5 fragment uncondensed DNA. DNA condensates were digested with 30 μg to trypsin for 12 h at 37° C., electrophoresed on a 1% agarose gel electrophoresed in TEA buffer for 2 h, then visualized by ethidium bromide staining and destaining prior to photography on a transilluminator.

HepG2 cells = experiment: Luciferase gene expression in HepG2 cells, Example 6; format: cell-based; settings: HepG2, absence of chloroquine
Method: HepG2 cells (1.5×10^5) were plated on 6×35 mm wells and grown to 50% confluencey in MEM supplemented with 10% FBS, penicillin and streptomycin (100 U/ml), sodium pyruvate (100 mM), and L-glutamine (2 mM). Transfections were performed in MEM (2 ml per 35 mm well) with 2% FBS with and without 80 μM chloroquine. Peptide DNA condensates (10 μg of DNA of 0.2 ml HBM) were added dropwise to triplicate wells. After a 5 h incubation at 37° C., the medium was replaced with MEM supplemented with 10% FBS. After 24 h, cells were washed with ice-cold phosphate buffered saline (calcium and magnesium free) and then treated with 0.5 ml of ice-cold lysis buffer (25 mM) Tris chloride pH 7.8, 1 mM EDTA, 8 mM magnesium chloride, 1% Triton X-100, 1 mM DTT) for 10 min. The cell lysates were scraped, transferred to 1.5 ml microcentrifuge tube, and centrifuged for 7 min at 13,000 g at 4° C. to pellet debris.
Lysis buffer (300 μl), sodium-ATP (4 μl of a 180 mM solution, pH 7, 4° C.) and cell lysate (100 μl, 4° C.) were combined in a test tube, briefly mixed and immediately placed in the luminometer. Luciferase relative light units (RLU) were recorded on a Lumat™ LB 9501 (Berthoid Systems, Germany) with 10 sec integration after automatic injection of 100 μl of 0.5 mM D-luciferin (prepared fresh in lysis buffer without DTT). The RLU were converted into fmol using a standard curve generated by adding a known amount of luciferase (0.01 to 100 fmols with specific activity of 2.5 nU/fmol) to 35 mm wells containing 50% confluent cells and lysis buffer. Protein concentrations were measured by Bradford assay using bovine serum albumin as a standard (Bradford, 1976). […]
LipofectAce™ (Gibco BRL, 1:2.5 w/w dimethyl dioctadecylammonium bromide and dioleoyl phosphatidylethanolamine) was used to mediate gene transaction according to the manufacturer's instructions. […] The cells were incubated for a total of 24 h, harvested and analyzed for luciferase as described above.

[3] = QELS particle size and zeta potential of cross-linking peptide DNA condensates, Example 5; format: physicochemical; settings: for Particle Size Mean Diameter, Oxidized, 15° / Particle Size Mean Diameter, Oxidized, 90°: HBM after 2 h incubation, 50 μg/ml DNA, 0.4 nmol peptide per μg DNA; for Particle Size Mean Diameter, Oxidized, 15°: scattering angle 15°; for Particle Size Mean Diameter, Oxidized, 90°: scattering angle 90°; for Particle Size Mean Diameter, Saline: HBM with added saline (0.15 M) after 15 min; for Particle Size Mean Diameter, Reduced: following addition of TCEP (1 mM)
Method: The particle size of each peptide DNA condensate was determined by quasielastic light scattering (QELS) at a scatter angle of both 15° and 90° on a Brookhaven ZetaPlus™ particle sizer. Condensates were prepared at a DNA concentration of 50 μg/ml in 400 μl HBM at a stoichiometry of 0.4 nmol of peptide per μg of DNA corresponding to a charge ratio of approximately 2:1 for each. The mean diameter and population distribution were computed from the diffusion coefficient using a unimodal cummulant analysis supplied by the manufacturer.
The particle size and zeta peptide IV DNA condensates were determined by titrating 7.5 to 37.5 nmol of peptide with 75 μg of DNA in 1.5 ml of HBM to produce 50 μg/ml DNA condensates with charge ratio of 0.5-2.5. The zeta potential was averaged from 10 determines.

[4] = Shear stress stability of cross-linked DNA condensates (salt sonication), Example 5; format: physicochemical; settings: charge ratio of 0.9
Method: Peptide DNA condensates (200 μl of 50 μg/ml) were formed and incubated at RT for 30 min and then combined with 0 to 200 μl of 5 M sodium chloride and normalized to 400 μl with HBM to achieve a final sodium chloride concentration of 0, 0.2, 0.4, 0.8, 1.0, 1.5, 2.0, and 2.5 M. Each sample was sonicated for 30 sec with a 100 W Microson™ XL-2000 ultrasonic probe homogenizer (Kontes, Vineland N.J.) with a vibrational amplitude of 6 to fragment uncondensed DNA (Adami et al., 1998). DNA condensates were digested with 30 μg of trypsin for 12 h at 37° C. then electrophoresed on an agarose gel and visualized by ethidium bromide staining.

Substance: Cys-(His-Lys)4-Cys (CHKHKHKHKC) [Peptide 15]
Particle Size (nm) [1]: 205 ± 104 nm
Zeta Potential (mV) [1]: 23 ± 1 mV

charge ratio (NH4+:PO4) needed to condense DNA (thiazole orange fluorescence minimum) (plasmid DNA): > 8
Substance: Cys-(Lys)2-Cys (CKKC) [Peptide 4]

Substance: Cys-(Lys)2-Cys-(Lys)2-Cys (CKKCKKC) [Peptide 9]
sodium chloride concentration up to which DNA condensates are stable [2]: 1.5 M
Particle Size (nm) [1]: 1668 ± 154 nm

Substance: Cys-(Lys)3-Cys-(Lys)3-Cys (CKKKCKKKC) [Peptide 10]
sodium chloride concentration up to which DNA condensates are stable [2]: 2.5 M
Particle Size (nm) [1]: 1375 ± 324 nm
Zeta Potential (mV) [1]: 34 ± 2 mV

Substance: Cys-(Lys)4-Cys-(Lys)4-Cys (CKKKKCKKKKC) [Peptide 11]
sodium chloride concentration up to which DNA condensates are stable [2]: 2.5 M
Particle Size (nm) [1]: 738 ± 154 nm
Zeta Potential (mV) [1]: 31 ± 3 mV

charge ratio (NH4+:PO4) needed to condense DNA (thiazole orange fluorescence minimum) (plasmid DNA): 2
Substance: Cys-(Lys)6-Cys (CKKKKKKC) [Peptide 6]
Particle Size (nm) [1]: 52 ± 4 nm
Zeta Potential (mV) [1]: 37 ± 1 mV

Substance: Cys-His-(Lys)3-His-(Lys)2-His-Cys (CHKKKHKKHC) [Peptide 14]
Particle Size (nm) [1]: 183 ± 64 nm
Zeta Potential (mV) [1]: 20 ± 2 mV
higher gene expression compared to peptide 7 DNA condensates (HepG2 cells): 4 fold

Substance: Cys-His-(Lys)6-His-Cys (CHKKKKKKHC) [Peptide 13]
Particle Size (nm) [1]: 97 ± 40 nm
Zeta Potential (mV) [1]: 31 ± 1 mV
higher gene expression compared to peptide 7 DNA condensates (HepG2 cells): 4 fold

Substance: Cys-His-Lys-His-Lys-(His)2-Lys-His-Cys (CHKHKHHKHC) [Peptide 16]
Particle Size (nm) [1]: 320 ± 169 nm
Zeta Potential (mV) [1]: 23 ± 1 mV

charge ratio (NH4+:PO4) needed to condense DNA (thiazole orange fluorescence minimum) (plasmid DNA): 6-8
Substance: Cys-Lys-Cys-Lys-Cys (CKCKC; printed: Cys-Lys-Cys-Lys-Cys) [Peptide 8]

Particle Size Mean Diameter, Oxidized, 15° [3]: 57 nm
Particle Size Mean Diameter, Oxidized, 90° [3]: 44 nm
Particle Size Mean Diameter, Saline [3]: 324 nm
particle size of electronegative DNA condensates ([3]; charge ratio of 0.9): 62 nm
zeta potential of electronegative DNA condensates ([3]; charge ratio of 0.9): −18 mV
Particle Size Mean Diameter, Reduced [3]: 158 nm
sodium chloride concentration up to which fragmentation was resisted [4]: 2.5 M
Substance: Cys-Trp-Lys5-Cys-Lys5-Cys-Lys5-Cys [Peptide IV]

Substance: Cys-Trp-Lys8-Cys-Lys8-Cys (CWKKKKKKKKCKKKKKKKKC) [III]
Particle Size Mean Diameter, Oxidized, 15° [3]: 26 nm
Particle Size Mean Diameter, Oxidized, 90° [3]: 39 nm
Particle Size Mean Diameter, Saline [3]: 157 nm
Particle Size Mean Diameter, Reduced [3]: 136 nm
